# Source: patent US20240181067A1, “TARGETED BIFUNCTIONAL DEGRADERS AND METHODS USING SAME” (YALE UNIVERSITY, priority 2021, published 2024)
# Biological target: streptavidin AF488 (Streptomyces avidinii, UniProt P22629)
# Assay: Degradation of a target protein using an LRP1 binding motif
# Type: cell-based
# Settings: FIG. 12
# Excerpt: Some studies have been done on other bifunctional molecules comprising an LRP1 binding motif depicted in FIG. 2 and a biotin Target binding motif, wherein these bifunctional molecules also noncovalently bind streptavidin (FIG. 11).
# Chain of streptavidin AF488 (P22629 25-183): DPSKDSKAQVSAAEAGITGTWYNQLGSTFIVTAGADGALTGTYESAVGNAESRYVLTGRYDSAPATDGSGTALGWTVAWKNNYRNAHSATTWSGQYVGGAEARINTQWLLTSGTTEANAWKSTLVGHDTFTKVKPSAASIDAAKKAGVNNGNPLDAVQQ
substance,measurement,value
"Ac.Ac.Biotin Angiopep-2: ""the Ac.Ac.Biotin Angiopep-2 mediated degradation of streptavidin AF488""",degradation of streptavidin AF488,mediated degradation of streptavidin AF488
